From article doi:10.1101/2025.08.23.671895, “Detergent-free reconstitution of transmembrane proteins in giant liposomes of complex curvature by the Synthetic Membrane Transfer” (bioRxiv, 2025)

Target: the molecule itself
Assay: cryo-EM structure; maltoporin reconstituted in amphipol A8-35 (filaments); 2D classification and 3D reconstruction

B1: maltoporin (natural protein, UniProt P02943 26-446, looked up)
chain: VDFHGYARSGIGWTGSGGEQQCFQTTGAQSKYRLGNECETYAELKLGQEVWKEGDKSFYFDTNVAYSVAQQNDWEATDPAFREANVQGKNLIEWLPGSTIWAGKRFYQRHDVHMIDFYYWDISGPGAGLENIDVGFGKLSLAATRSSEAGGSSSFASNNIYDYTNETANDVFDVRLAQMEINPGGTLELGVDYGRANLRDNYRLVDGASKDGWLFTAEHTQSVLKGFNKFVVQYATDSMTSQGKGLSQGSGVAFDNEKFAYNINNNGHMLRILDHGAISMGDNWDMMYVGMYQDINWDNDNGTKWWTVGIRPMYKWTPIMSTVMEIGYDNVESQRTGDKNNQYKITLAQQWQAGDSIWSRPAIRVFATYAKWDEKWGYDYTGNADNNANFGKAVPADFNGGSFGRGDSDEWTFGAQMEIWW
notes: maltoporin, a beta-barrel transmembrane protein; One protein embedded in two polymers (SMA or amphipol A8-35); E. coli LamB is my surmise; also called maltoporin-SMA; maltoporin-Apol; source: purified using DDM-mediated extraction, detergent exchanged with SMA (bio-beads) or amphipol A8-35
For B1, the “stoichiometry N” value was 3.
